Results as given in article PMC4888458.

Experiments:
[1] = NBD-PS uptake in yeast, flow cytometry; details: glycan lost; control: wild-type ALIS5 with ALA2
[2] = confocal microscopy of GFP–ALA2 in tobacco epidermal cells; details: glycan lost; control: untagged wild-type ALIS5 with GFP–ALA2

B1: ALIS5: N181Q (protein)
parent chain: MSSTAASSTVGGGGSSEISGVKKTSKRPKYSRFTQQELPACKPILTPRWVILTFLVAGVVFIPLGVICLFASQGVVEIVDRYDTDCIPTSSRNNMVAYIQGEGDKICKRTITVTKAMKHPVYVYYQLENFYQNHRRYVKSRNDAQLRSPKEEHDVKTCAPEDNVGGEPIVPCGLVAWSLFNDTYSFSRNSQQLLVNKKGISWKSDRENKFGKNVFPKNFQKGAPIGGGTLNISKPLSEQEDLIVWMRTAALPTFRKLYGKIETDLHAGDTITVLLQNNYNTYSFNGQKKLVLSTTSWLGGRNDFLGIAYLTVGSICLFLAVTFAVLYLVKPRQLGDPSYLSWNRSAGGLQ
Q: With B1 as the protein, how does the “other: transport activity” value [1] read?
A: The value was “abolishes”.

Q: And the localisation_or_trafficking [2]?
A: The localisation_or_trafficking was “abolishes”.

B2: ALIS5: N231Q/N181Q (protein)
parent chain: MSSTAASSTVGGGGSSEISGVKKTSKRPKYSRFTQQELPACKPILTPRWVILTFLVAGVVFIPLGVICLFASQGVVEIVDRYDTDCIPTSSRNNMVAYIQGEGDKICKRTITVTKAMKHPVYVYYQLENFYQNHRRYVKSRNDAQLRSPKEEHDVKTCAPEDNVGGEPIVPCGLVAWSLFNDTYSFSRNSQQLLVNKKGISWKSDRENKFGKNVFPKNFQKGAPIGGGTLNISKPLSEQEDLIVWMRTAALPTFRKLYGKIETDLHAGDTITVLLQNNYNTYSFNGQKKLVLSTTSWLGGRNDFLGIAYLTVGSICLFLAVTFAVLYLVKPRQLGDPSYLSWNRSAGGLQ
Q: For B2, which “other: transport activity” value [1] is on record?
A: The value was “abolishes”.

Q: And the localisation_or_trafficking [2]?
A: Its localisation_or_trafficking is “abolishes”.
